B1: Guanyl-specific ribonuclease Sa, P05798 (parent)
chain: DVSGTVCLSALPPEATDTLNLIASDGPFPYSQDGVVFQNRESVLPTQSYGYYHEYTVITPGARTRGTRRIITGEATQEDYYTGDHYATFSLIDQTC

Variants of: B1
Settings: Kitasatospora aureofaciens; pH 7; Thermal; Fluorescence; MOPS 30mM; transition: 2; reversible: yes; structure 1RGG; whole UniProt chain shown

Variant: L8A
- change of melting temperature, mutant - wild type (higher = more stable): -5 °C
- ddG of mutation (higher = less stable): 1.34 kcal/mol
- unfolding enthalpy (calorimetric): 89 kcal/mol

Variant: L19A
- change of melting temperature, mutant - wild type (higher = more stable): -13.8 °C
- ddG of mutation (higher = less stable): 3.65 kcal/mol
- unfolding enthalpy (calorimetric): 73 kcal/mol

Variant: L21A
- change of melting temperature, mutant - wild type (higher = more stable): -1.6 °C
- ddG of mutation (higher = less stable): 0.41 kcal/mol
- unfolding enthalpy (calorimetric): 85 kcal/mol

Variant: I22V
- change of melting temperature, mutant - wild type (higher = more stable): -5.7 °C
- ddG of mutation (higher = less stable): 1.48 kcal/mol
- unfolding enthalpy (calorimetric): 74 kcal/mol

Variant: I58V
- change of melting temperature, mutant - wild type (higher = more stable): 0.11 °C
- ddG of mutation (higher = less stable): 0 kcal/mol
- unfolding enthalpy (calorimetric): 89 kcal/mol

Variant: I70V
- change of melting temperature, mutant - wild type (higher = more stable): -3.4 °C
- ddG of mutation (higher = less stable): 0.94 kcal/mol
- unfolding enthalpy (calorimetric): 87 kcal/mol

Variant: I71V
- change of melting temperature, mutant - wild type (higher = more stable): -0.3 °C
- ddG of mutation (higher = less stable): 0.13 kcal/mol
- unfolding enthalpy (calorimetric): 80 kcal/mol

Variant: L91A
- change of melting temperature, mutant - wild type (higher = more stable): -3.2 °C
- ddG of mutation (higher = less stable): 0.84 kcal/mol
- unfolding enthalpy (calorimetric): 91 kcal/mol

Variant: I92V
- change of melting temperature, mutant - wild type (higher = more stable): -3.9 °C
- ddG of mutation (higher = less stable): 1 kcal/mol
- unfolding enthalpy (calorimetric): 84 kcal/mol
